From paper PMC6502846

What was measured:
[1] = target: C5b-8(C9)n (1 ≤ n < 18) (human) (UniProt P01031); assay: rapid atomic force microscopy imaging; supported bilayers of E. coli lipid extract on mica; proteins injected one after the other in situ without wash steps, 80 nM C5b6, C7 and C8, 1.4 µM C9; 30 °C; 6.5 s per frame; 20 mM HEPES, 120 mM NaCl, pH 7.4; chamber passivated with BSA
[2] = target: C5b-8 initiator complex, comprised of C5b6 in complex with C7 and C8 (human) (UniProt P01031); assay: as above

C9, sequence (P02748 22-559): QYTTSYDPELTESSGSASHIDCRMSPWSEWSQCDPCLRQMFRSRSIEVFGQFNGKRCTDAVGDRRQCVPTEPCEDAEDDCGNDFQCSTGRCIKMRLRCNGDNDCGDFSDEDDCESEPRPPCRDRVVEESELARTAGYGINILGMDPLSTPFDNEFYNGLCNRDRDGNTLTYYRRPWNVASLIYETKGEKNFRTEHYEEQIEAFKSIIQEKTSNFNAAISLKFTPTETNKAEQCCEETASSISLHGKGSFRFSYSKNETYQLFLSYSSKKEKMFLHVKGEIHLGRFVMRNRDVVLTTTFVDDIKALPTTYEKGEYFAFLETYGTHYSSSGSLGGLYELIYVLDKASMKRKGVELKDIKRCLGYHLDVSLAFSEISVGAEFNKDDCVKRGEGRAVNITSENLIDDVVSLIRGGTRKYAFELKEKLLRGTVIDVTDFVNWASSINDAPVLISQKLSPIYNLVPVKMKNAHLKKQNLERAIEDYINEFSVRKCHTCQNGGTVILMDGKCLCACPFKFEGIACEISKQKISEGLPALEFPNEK

Question: How did the kon [1] turn out when “C9 (from UniProt P02748 22-559) (natural protein)” was run?
Answer: 108000 M⁻¹ s⁻¹

Question: And the τ olig, time to add 17 copies of C9 after the initiation event [1]?
Answer: 112 s

Question: And the τ+, average time per addition of each of the remaining 17 C9 subunits [1]?
Answer: 6.6 s

Question: And the characteristic initiation time τ init [2]?
Answer: 912 s

Question: What about the kon [2] of the same substance?
Answer: 780 M⁻¹ s⁻¹
